Measured values published in the supplement of paper PMC6757056.
± gives the standard deviation of the averaged measurements.

B1: library; a variant is named by its letters at N, in order (parent)
chain: GCUGUCACCGGUGUAUUACCCUAGUGGUCGACCGGUCUGAUGAGUCUNNNNNNAGACGAAACAGC

What was measured:
[1] = variants of: B1; test: normalized RNA/DNA level with ligand (relative to sTRSVctl = 100) (log10 (% of sTRSVctl)); ligand: hypoxanthine (xanthine aptamer); higher = less ribozyme self-cleavage, higher mRNA level; details: ligand concentration (+) RNA-Seq: 5 mM, HEK293T, reporter: mCherry (pCS4076), ligand present: yes
Procedure, shortened: (§1)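 RNA level was computed as RNA reads over DNA reads divided by a spiked-in non-cleaving sequence or by the top sequences, then scaled and log-transformed. Scaling was ×100 with log10, the top group was 25 sequences, and the threshold was ≥100 DNA reads. The reads came from HEK293T cells transfected at 4 µg per 6-well well with ribozyme switch library plasmids (mCherry, or eGFP in some ligand experiments). Total RNA was extracted with EDTA 72 h after transfection, with any ligand added 1 h before it.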

[2] = variants of: B1; test: normalized RNA/DNA level without ligand (relative to sTRSVctl = 100) (log10 (% of sTRSVctl)); ligand: hypoxanthine (xanthine aptamer); higher = less ribozyme self-cleavage, higher mRNA level; details: HEK293T, reporter: mCherry (pCS4076), ligand present: no
Procedure, shortened: as §1

## CGGAAC
[1]
  normalized RNA/DNA level with ligand (log10): 1.85 ± 0.026
[2]
  normalized RNA/DNA level without ligand (log10): 1.51 ± 0.072

## CGCUCC
[1]
  normalized RNA/DNA level with ligand (log10): 1.956 ± 0.013
[2]
  normalized RNA/DNA level without ligand (log10): 1.93 ± 0.027

## CGCUCU
[1]
  normalized RNA/DNA level with ligand (log10): 2.02 ± 0.061
[2]
  normalized RNA/DNA level without ligand (log10): 1.93 ± 0.048

## CGCUCA
[1]
  normalized RNA/DNA level with ligand (log10): 2.01 ± 0.059
[2]
  normalized RNA/DNA level without ligand (log10): 1.905 ± 0.012

## AGCCGU
[1]
  normalized RNA/DNA level with ligand (log10): 1.92 ± 0.03
[2]
  normalized RNA/DNA level without ligand (log10): 1.69 ± 0.024

## AGCCGC
[1]
  normalized RNA/DNA level with ligand (log10): 1.9 ± 0.096
[2]
  normalized RNA/DNA level without ligand (log10): 1.84 ± 0.0076

## CGCAAC
[1]
  normalized RNA/DNA level with ligand (log10): 1.928 ± 0.01
[2]
  normalized RNA/DNA level without ligand (log10): 1.88 ± 0.024

## CGCAAG
[1]
  normalized RNA/DNA level with ligand (log10): 1.847 ± 0.014
[2]
  normalized RNA/DNA level without ligand (log10): 1.78 ± 0.1

## CGCAAU
[1]
  normalized RNA/DNA level with ligand (log10): 1.94 ± 0.015
[2]
  normalized RNA/DNA level without ligand (log10): 1.77 ± 0.036

## AGCAAA
[1]
  normalized RNA/DNA level with ligand (log10): 1.92 ± 0.047
[2]
  normalized RNA/DNA level without ligand (log10): 1.7327 ± 0.00011

## UGCCCG
[1]
  normalized RNA/DNA level with ligand (log10): 1.9 ± 0.037
[2]
  normalized RNA/DNA level without ligand (log10): 1.831 ± 0.014

## UGCCCU
[1]
  normalized RNA/DNA level with ligand (log10): 2.003 ± 0.013
[2]
  normalized RNA/DNA level without ligand (log10): 1.94 ± 0.028

## UGCCCC
[1]
  normalized RNA/DNA level with ligand (log10): 2.011 ± 0.0086
[2]
  normalized RNA/DNA level without ligand (log10): 1.9 ± 0.024

## GGCUGU
[1]
  normalized RNA/DNA level with ligand (log10): 1.96 ± 0.025
[2]
  normalized RNA/DNA level without ligand (log10): 1.95 ± 0.046

## GGCUGA
[1]
  normalized RNA/DNA level with ligand (log10): 2.01 ± 0.032
[2]
  normalized RNA/DNA level without ligand (log10): 1.87 ± 0.026

## GGCUGC
[1]
  normalized RNA/DNA level with ligand (log10): 1.92 ± 0.048
[2]
  normalized RNA/DNA level without ligand (log10): 1.58 ± 0.039

## GGCUGG
[1]
  normalized RNA/DNA level with ligand (log10): 1.9543 ± 0.0009
[2]
  normalized RNA/DNA level without ligand (log10): 1.66 ± 0.048

## GGCUAG
[1]
  normalized RNA/DNA level with ligand (log10): 1.812 ± 0.005
[2]
  normalized RNA/DNA level without ligand (log10): 1.54 ± 0.039

## GGCUAA
[1]
  normalized RNA/DNA level with ligand (log10): 1.94 ± 0.046
[2]
  normalized RNA/DNA level without ligand (log10): 1.86 ± 0.017

## GGCUAC
[1]
  normalized RNA/DNA level with ligand (log10): 1.933 ± 0.0082
[2]
  normalized RNA/DNA level without ligand (log10): 1.79 ± 0.093

## GGCUAU
[1]
  normalized RNA/DNA level with ligand (log10): 1.953 ± 0.0089
[2]
  normalized RNA/DNA level without ligand (log10): 1.876 ± 0.005

## AGCCCC
[1]
  normalized RNA/DNA level with ligand (log10): 1.963 ± 0.015
[2]
  normalized RNA/DNA level without ligand (log10): 1.91 ± 0.089

## AGCCCU
[1]
  normalized RNA/DNA level with ligand (log10): 1.94 ± 0.03
[2]
  normalized RNA/DNA level without ligand (log10): 1.932 ± 0.013

## UGGAUC
[1]
  normalized RNA/DNA level with ligand (log10): 1.99 ± 0.04
[2]
  normalized RNA/DNA level without ligand (log10): 1.95 ± 0.027

## UGGAUA
[1]
  normalized RNA/DNA level with ligand (log10): 1.96 ± 0.042
[2]
  normalized RNA/DNA level without ligand (log10): 1.84 ± 0.02

## UGGAUU
[1]
  normalized RNA/DNA level with ligand (log10): 1.97 ± 0.021
[2]
  normalized RNA/DNA level without ligand (log10): 1.824 ± 0.0038

## GGCAGG
[1]
  normalized RNA/DNA level with ligand (log10): 1.874 ± 0.0049
[2]
  normalized RNA/DNA level without ligand (log10): 1.496 ± 0.0048

## UGGAAC
[1]
  normalized RNA/DNA level with ligand (log10): 1.89 ± 0.032
[2]
  normalized RNA/DNA level without ligand (log10): 1.78 ± 0.034

## UGGAAA
[1]
  normalized RNA/DNA level with ligand (log10): 1.91 ± 0.02
[2]
  normalized RNA/DNA level without ligand (log10): 1.7 ± 0.039

## UGGAAG
[1]
  normalized RNA/DNA level with ligand (log10): 1.871 ± 0.018
[2]
  normalized RNA/DNA level without ligand (log10): 1.556 ± 0.01

## UGCGGU
[1]
  normalized RNA/DNA level with ligand (log10): 1.905 ± 0.01
[2]
  normalized RNA/DNA level without ligand (log10): 1.742 ± 0.0036

## UGCGGG
[1]
  normalized RNA/DNA level with ligand (log10): 1.98 ± 0.11
[2]
  normalized RNA/DNA level without ligand (log10): 1.754 ± 0.0048

## GGGCAC
[1]
  normalized RNA/DNA level with ligand (log10): 1.9407 ± 0.0014
[2]
  normalized RNA/DNA level without ligand (log10): 1.879 ± 0.012

## UGCAUG
[1]
  normalized RNA/DNA level with ligand (log10): 1.9 ± 0.028
[2]
  normalized RNA/DNA level without ligand (log10): 1.75 ± 0.024

## UGCAUU
[1]
  normalized RNA/DNA level with ligand (log10): 1.981 ± 0.01
[2]
  normalized RNA/DNA level without ligand (log10): 1.88 ± 0.018

## UGCAUC
[1]
  normalized RNA/DNA level with ligand (log10): 2.02 ± 0.031
[2]
  normalized RNA/DNA level without ligand (log10): 2.04 ± 0.052

## UGCAUA
[1]
  normalized RNA/DNA level with ligand (log10): 1.964 ± 0.0062
[2]
  normalized RNA/DNA level without ligand (log10): 1.83 ± 0.022

## UGCGCA
[1]
  normalized RNA/DNA level with ligand (log10): 1.94 ± 0.034
[2]
  normalized RNA/DNA level without ligand (log10): 1.82 ± 0.052

## UGCGCC
[1]
  normalized RNA/DNA level with ligand (log10): 1.989 ± 0.0081
[2]
  normalized RNA/DNA level without ligand (log10): 1.93 ± 0.065

## UGCGCU
[1]
  normalized RNA/DNA level with ligand (log10): 1.966 ± 0.0057
[2]
  normalized RNA/DNA level without ligand (log10): 1.93 ± 0.023

## CGGCCC
[1]
  normalized RNA/DNA level with ligand (log10): 1.979 ± 0.011
[2]
  normalized RNA/DNA level without ligand (log10): 2.012 ± 0.0089

## CGGCCA
[1]
  normalized RNA/DNA level with ligand (log10): 1.96 ± 0.056
[2]
  normalized RNA/DNA level without ligand (log10): 1.95 ± 0.027

## CGGCCU
[1]
  normalized RNA/DNA level with ligand (log10): 2.03 ± 0.021
[2]
  normalized RNA/DNA level without ligand (log10): 1.93 ± 0.027

## AGCUGU
[1]
  normalized RNA/DNA level with ligand (log10): 1.938 ± 0.0047
[2]
  normalized RNA/DNA level without ligand (log10): 1.75 ± 0.028

## GGCGCG
[1]
  normalized RNA/DNA level with ligand (log10): 1.95 ± 0.028
[2]
  normalized RNA/DNA level without ligand (log10): 1.81 ± 0.0088

## GGCGCC
[1]
  normalized RNA/DNA level with ligand (log10): 2.004 ± 0.0022
[2]
  normalized RNA/DNA level without ligand (log10): 1.93 ± 0.024

## GGCGCU
[1]
  normalized RNA/DNA level with ligand (log10): 1.973 ± 0.003
[2]
  normalized RNA/DNA level without ligand (log10): 2.03 ± 0.022

## GGCUUG
[1]
  normalized RNA/DNA level with ligand (log10): 1.93 ± 0.071
[2]
  normalized RNA/DNA level without ligand (log10): 1.66 ± 0.04

## GGCUUC
[1]
  normalized RNA/DNA level with ligand (log10): 1.99 ± 0.03
[2]
  normalized RNA/DNA level without ligand (log10): 1.98 ± 0.041

## GGCUUA
[1]
  normalized RNA/DNA level with ligand (log10): 1.967 ± 0.014
[2]
  normalized RNA/DNA level without ligand (log10): 1.88 ± 0.025

## GGCUUU
[1]
  normalized RNA/DNA level with ligand (log10): 2.025 ± 0.0095
[2]
  normalized RNA/DNA level without ligand (log10): 1.982 ± 0.006

## CGGAUG
[1]
  normalized RNA/DNA level with ligand (log10): 1.993 ± 0.011
[2]
  normalized RNA/DNA level without ligand (log10): 1.75 ± 0.028

## CGGAUC
[1]
  normalized RNA/DNA level with ligand (log10): 2.018 ± 0.0066
[2]
  normalized RNA/DNA level without ligand (log10): 1.92 ± 0.028

## CGGAUA
[1]
  normalized RNA/DNA level with ligand (log10): 1.87 ± 0.041
[2]
  normalized RNA/DNA level without ligand (log10): 1.51 ± 0.085

## UGGCAC
[1]
  normalized RNA/DNA level with ligand (log10): 2 ± 0.034
[2]
  normalized RNA/DNA level without ligand (log10): 1.913 ± 0.019

## UGGCAA
[1]
  normalized RNA/DNA level with ligand (log10): 1.917 ± 0.015
[2]
  normalized RNA/DNA level without ligand (log10): 1.77 ± 0.03

## GGCGAG
[1]
  normalized RNA/DNA level with ligand (log10): 1.82 ± 0.021
[2]
  normalized RNA/DNA level without ligand (log10): 1.47 ± 0.087
